Data published in patent publication US20090203038A1 (AbbVie / Abbott, published 2009).

Molecular target: T1, biotinylated cyclic BNP (1-32c) (human, biotinylated; cyclic)
T1 construct: also called human BNP
Assay: flow cytometry, yeast-displayed scFv, biotinylated cyclic BNP (1-32c) detected with SA:PE
Procedure: Dilutions of the transformation reaction were plated on selective glucose plates (2% glucose (0.67% yeast nitrogen base, 0.105% HSM-trp-ura, 1.8% bacterial agar, 18.2% sorbitol, 0.86% NaH₂PO₄H₂O, 1.02% Na₂HPO₄ 7H₂O)) and incubated at 30° C. for 48-72 hours. Selective glucose media was inoculated with individual colonies and grown shaking at 30° C. for 16-20 hours. Protein expression was induced in colonies by transferring 0.5 OD600 of cells/ml (1e7 cells/0.5 OD/ml) to selective galactose media. Colonies were shaken at 20° C. for 16-24 hours and then analyzed by the FACS Aria flow cytometer for binding to cyclic BNP (referred to as “1-32c”) (SEQ ID NO:10) and anti-V5.

T1 sequence (peptide, as listed by the source): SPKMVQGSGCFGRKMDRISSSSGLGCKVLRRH

B1: 3-631-436 scFv (wildtype), displayed on the surface of yeast (scFv)
scFv: QVQLQQPGAELVRPGASVKLSCKASGYTFTSYWMNWVKQRPEQGLEWIGRIDPYDSETHYNQKFKDKAILTVDKSSSTAFVQLTSLTSEDSAVYYCVSDGYWGAGTTVTVSSGPAKELTPLKEAKVSDVVMTQTPLTLSVTTGQPASISCKSSQSLLDSDGKTYLNWLFQRPGESPKLLIYVVSKLESGVPDRFTGSGSGTDFTLKISRVEAEDLGVYYCLQATHFPWTFGGGTKLEIKRAAALESRGPFEGKPIPNPLLGLDSTRTGHHHHHH
**Q.** Does B1 bind?
**A.** Result: binds
